The source of these data is paper doi:10.1101/2022.06.14.496144.

In general, stoichiometry N refers to a count of units in the complex or per binding partner.

Test [1] deals with GlOCPX E25C mutant (Gloeobacter kilaueensis JS1). Put plainly: SEC.
The target of test [2] is Gloeobacter kilaueensis JS1 Orange Carotenoid Protein clade X (GlOCPX), wild type (Gloeobacter kilaueensis JS1). The experiment in a line: SEC-MALS. (Size exclusion chromatography separates by hydrodynamic size, large species first.)
For test [3] the target is unchanged. The experiment in a line: SEC.

In the case of GlOCPX E25C mutant (natural protein), the dimer/monomer ratio in test [1] is 25%.

Take “Gloeobacter kilaueensis JS1 Orange Carotenoid Protein clade X (GlOCPX), wild type (natural protein)”: the stoichiometry N in test [2] is 2. Moreover, the dimer/monomer ratio in test [3] stood at 5%.
